Laboratory results as given in patent US20220033501A1 (SHANGHAI PHARMAEXPLORER, published 2022).

Assays:
[1] = molecular target: T1, human TIM-3 protein with hFc tag (hTIM-3-hFc protein) (human, UniProt Q8TDQ0 22-200); assay: ELISA, coated hTIM-3-hFc; antibody 6.6667 nM
T1 construct: also called immunogen 1; human TIM-3 extracellular domain protein; not shown: human IgG Fc fragment (hFc) of the pCpC vector
T1 sequence: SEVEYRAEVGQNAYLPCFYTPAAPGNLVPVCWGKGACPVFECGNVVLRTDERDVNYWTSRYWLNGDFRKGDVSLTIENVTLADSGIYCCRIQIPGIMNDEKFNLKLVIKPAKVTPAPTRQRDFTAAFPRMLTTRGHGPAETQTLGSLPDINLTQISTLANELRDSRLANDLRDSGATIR
Excerpt: (§1) The amino acid sequence 22-200 of the extracellular domain of the human TIM-3 protein described in the step of Example 1 (as shown in SEQ ID NO. 71 in the sequence listing) was cloned into a pCpC vector having a human IgG Fc fragment (hFc), and transfected into HEK293 cells. The cell culture medium was collected, and purified to obtain the human TIM-3 protein with hFc tag (herein referred to as hTIM-3-hFc protein). The amino acid sequence 22-201 of the extracellular domain of the monkey TIM-3 protein (as shown in SEQ ID NO. 72 in the sequence listing) was cloned into a pCpC vector having a human IgG Fc fragment (hFc), and transfected into HEK293 cells. The cell culture medium was collected, and purified to obtain the monkey TIM-3 protein with hFc tag (herein referred to as cTIM-3-hFc protein). […] The cell culture medium was collected, and purified to obtain the murine TIM-3 protein with hFc tag (herein referred to as mTIM-3-hFc protein). Purified human, monkey, and mouse TIM-3 extracellular domain proteins (hTIM-3-hFc, cTIM-3-hFc, and mTIM-3-hFc) were diluted with PBS to a final concentration of 1.0 μg/ml and then added to a 96-well ELISA plate with 100 μl per well. The plate was sealed with plastic film and incubated overnight at 4° C. The plate was washed 4 times with the plate washing solution (PBS+0.01% Tween20) on the next day, and added with the blocking solution (PBS+0.01% Tween20+1% BSA) and sealed at room temperature for 1-2 hours. The blocking solution was poured out. 50-100 μl of the antibody sample to be tested was added to each well. The plate was incubated at 37° C. for 1-2 hours, and washed 2-3 times with plate washing solution (PBS+0. 01% Tween20). HRP (horseradish peroxidase) labeled secondary antibody was added. The plate was incubated at 37° C. for 1-2 hours, and washed 2-3 times with plate washing solution (PBS+0. 01% Tween20). […] of TMB substrate was added to each well. After incubated at room temperature for 15-30 minutes, the plate was added with […] stop solution (1.0N HCl) to each well. An ELISA plate reader (TiterMax 384plus, Molecular Device) was used to read the A450 nm value.

[2] = molecular target: T2, monkey TIM-3 protein with hFc tag (cTIM-3-hFc protein) (monkey; human); assay: ELISA, coated cTIM-3-hFc; antibody 0.0001 nM
T2 construct: Made in HEK293 cells; also called monkey TIM-3 extracellular domain protein; not shown: human IgG Fc fragment (hFc) of the pCpC vector
T2 chain: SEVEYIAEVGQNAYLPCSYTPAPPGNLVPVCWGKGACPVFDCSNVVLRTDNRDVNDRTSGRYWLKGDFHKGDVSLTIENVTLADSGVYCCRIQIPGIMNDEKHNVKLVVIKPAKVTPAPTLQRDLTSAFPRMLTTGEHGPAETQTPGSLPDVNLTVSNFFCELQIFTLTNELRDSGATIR
Excerpt: as §1

[3] = molecular target: T3, murine TIM-3 protein with hFc tag (mTIM-3-hFc protein) (mouse; human, UniProt Q8VIM0 29-191); assay: ELISA, coated mTIM-3-hFc; antibody 6.6667 nM
T3 construct: Made in HEK293 cells; also called mouse TIM-3 extracellular domain protein; not shown: human IgG Fc fragment (hFc) of the pCpC vector
T3 chain: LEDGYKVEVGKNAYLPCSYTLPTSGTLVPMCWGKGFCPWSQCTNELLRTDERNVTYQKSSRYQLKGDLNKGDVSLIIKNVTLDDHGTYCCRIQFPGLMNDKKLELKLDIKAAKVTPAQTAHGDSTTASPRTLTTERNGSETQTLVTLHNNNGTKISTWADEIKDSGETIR
Excerpt: as §1

[4] = molecular target: T4, TIM-3 protein on human peripheral blood mononuclear lymphocytes (PBMC) (human, UniProt Q8TDQ0 22-301); assay: cell-based or functional assay
T4 sequence: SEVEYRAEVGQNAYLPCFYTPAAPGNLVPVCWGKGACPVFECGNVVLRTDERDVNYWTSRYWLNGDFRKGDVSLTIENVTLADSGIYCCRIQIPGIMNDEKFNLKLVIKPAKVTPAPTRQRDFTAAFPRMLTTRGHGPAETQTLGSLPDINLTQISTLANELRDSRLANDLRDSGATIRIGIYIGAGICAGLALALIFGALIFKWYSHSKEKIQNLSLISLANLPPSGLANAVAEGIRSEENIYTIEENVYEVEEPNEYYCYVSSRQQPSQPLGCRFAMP

[5] = molecular target: T5, human TIM-3 on CHOK1 stable cell line (CHOK1-hTIM-3) (human, UniProt Q8TDQ0 22-301); assay: FACS, CHOK1-hTIM-3 cells, 8 nM antibody
T5 sequence: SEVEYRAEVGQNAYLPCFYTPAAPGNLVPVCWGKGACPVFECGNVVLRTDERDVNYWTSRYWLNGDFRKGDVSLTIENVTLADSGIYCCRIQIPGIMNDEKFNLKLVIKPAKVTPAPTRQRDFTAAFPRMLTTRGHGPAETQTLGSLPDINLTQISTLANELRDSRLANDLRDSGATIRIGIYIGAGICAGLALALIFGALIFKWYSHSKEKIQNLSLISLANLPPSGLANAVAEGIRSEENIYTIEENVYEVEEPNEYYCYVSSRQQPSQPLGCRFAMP

[6] = molecular target: T6, human TIM-3 extracellular domain protein with hFc tag (hTIM-3-hFc) (human, UniProt Q8TDQ0 22-200); assay: ELISA, coated human TIM-3 ECD protein, 0 nM antibody
T6 construct: not shown: human IgG Fc fragment (hFc) of the pCpC vector
T6 sequence: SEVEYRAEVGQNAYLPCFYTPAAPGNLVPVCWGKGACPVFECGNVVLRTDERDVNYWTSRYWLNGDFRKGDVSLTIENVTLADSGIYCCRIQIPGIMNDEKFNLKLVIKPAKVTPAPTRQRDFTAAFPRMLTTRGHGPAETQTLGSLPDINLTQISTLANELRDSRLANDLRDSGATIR

[7] = molecular target: T7, murine TIM-3 extracellular domain protein with hFc tag (mTIM-3-hFc) (mouse, UniProt Q8VIM0 29-191); assay: ELISA, coated mouse TIM-3 ECD protein, 0.6667 nM antibody
T7 construct: also called mouse TIM-3 extracellular domain protein; not shown: human IgG Fc fragment (hFc) of the pCpC vector
T7 chain: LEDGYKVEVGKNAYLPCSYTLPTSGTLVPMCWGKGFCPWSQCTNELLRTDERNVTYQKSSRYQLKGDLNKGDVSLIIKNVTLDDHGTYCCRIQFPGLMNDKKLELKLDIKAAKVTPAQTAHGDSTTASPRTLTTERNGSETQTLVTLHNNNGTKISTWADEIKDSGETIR

[8] = molecular target: T8, monkey TIM-3 extracellular domain protein with hFc tag (cTIM-3-hFc) (monkey); assay: ELISA, coated monkey TIM-3 ECD protein, 0.0001 nM antibody
T8 construct: not shown: human IgG Fc fragment (hFc) of the pCpC vector
T8 chain: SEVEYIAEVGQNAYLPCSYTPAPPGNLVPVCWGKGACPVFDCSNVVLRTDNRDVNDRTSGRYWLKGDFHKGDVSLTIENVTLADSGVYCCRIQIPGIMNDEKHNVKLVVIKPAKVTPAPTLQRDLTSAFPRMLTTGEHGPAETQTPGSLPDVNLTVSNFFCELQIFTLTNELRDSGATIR

[9] = molecular target: T8, monkey TIM-3 extracellular domain …; assay: ELISA, coated monkey TIM-3 ECD protein, 0.0667 nM antibody

B1: 7A4F10 (TIM-3 antibody purified from hybridoma, chimeric antibody of Example 2) (antibody, V domains shown)
VH: EVQLLESGGGLVQPGGSLRLSCAASGFTFRTHLISWVRQAPGKGLEWVAAITGSGGSTYYADSVKGRFIISRDNSKNTLFLQMNSLRAEDTAVYYCAKDGGSGSYDDFWGQGTLVTVSS
VL: ETVLTQSPVTLSLSPGERATLSCRASQSVGSYLAWYQQKPGQAPRLLIYDASNRATGIPARFSGSGSGTDFTLTISSLEPEDFAVYYCQQRSNWPPTFGQGTKVEIK
notes: From hybridoma of Harbour H2L2 transgenic mice: human variable regions, rat constant regions
- OD450 [1]: 2.92
- OD450 [2]: 0.54
- OD450 [3]: 0.67

B2: 215A8F2 (TIM-3 antibody purified from hybridoma, chimeric antibody of Example 2) (antibody, V domains shown)
VH: QVQLQQWGAGLLKPSETLSLTCTVYGGSFSGYYWNWIRQPPGKGLEWLGEINHSGSTNYNPSLKRRVTISVDTSKNQFSLKLSSVTAADTAVYYCARVYYYGPFDFWGQGTLVTVSS
VL: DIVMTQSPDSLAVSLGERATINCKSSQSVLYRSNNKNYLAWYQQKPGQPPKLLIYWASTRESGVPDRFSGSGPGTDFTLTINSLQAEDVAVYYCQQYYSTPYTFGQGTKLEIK
notes: as for B1
- OD450 [1]: 3.15
- OD450 [2]: 0.52
- OD450 [3]: 0.68

B3: 57F4E5 fully human TIM-3 antibody (human IgG4, kappa) (antibody, V domains shown)
VH: EVQLVESGGGLVQPGGSLRLSCAASGFTFSSYWMSWVRQAPGKGLEWVANIKQDGSEKYYVDSVKGRFTISRDSAKNSLYLQMNSLRAEDTAMYFCARDSNFFDYWGQGTLVTVSS
VL: ETVMTQSPATLSVSPGERATLSCRASQSVSSNLAWYQRKPGQAPRLLIYFSSTRATGIPARFSGSGSGTEFTLTISSLQSEDFAVYYCQQYNNWPLTFGGGTKVEIK
- IFN-γ production (donor X); antibody 0.1 µg/ml, N = 1 [4]: 2800 pg/mL
- IFN-γ production (donor X); antibody 0.1 µg/ml, N = 2 [4]: 2980 pg/mL
- IFN-γ production (donor X); antibody 1 µg/ml, N = 1 [4]: 3550 pg/mL
- IFN-γ production (donor X); antibody 1 µg/ml, N = 2 [4]: 3150 pg/mL
- IFN-γ production (donor X); antibody 10 µg/ml, N = 1 [4]: 3080 pg/mL
- IFN-γ production (donor X); antibody 10 µg/ml, N = 2 [4]: 3340 pg/mL
- IFN-γ production (donor X); antibody '0' (4th head as printed), N = 1 [4]: 2870 pg/mL
- IFN-γ production (donor X); antibody '0' (4th head as printed), N = 2 [4]: 2740 pg/mL
- IFN-γ production (donor X); antibody '0' (5th head as printed), N = 1 [4]: 2160 pg/mL
- IFN-γ production (donor X); antibody '0' (5th head as printed), N = 2 [4]: 2400 pg/mL
- Mean fluorescence intensity [5]: 154
- OD450 [6]: 0.08
- OD450 [7]: 0.28
- OD450 [8]: 0.17
- OD450 [9]: 1.34

B4: 18D2H2 (TIM-3 antibody purified from hybridoma, chimeric antibody of Example 2) (antibody, V domains shown)
VH: EVQLVESGGDLVQPGGSLRLSCAASGFTFSTYWMTWVRQAPGRGLEWVANIKQDGSAKYYVDSVKGRFTLSRDDAKNSLYLQMNSLRAEDTAVYYCARGSNWFDYWGQGTLVTVSS
VL: ETVMTQSPATLSVSPGERATLSCRANQNVYSNLAWYQQKPGQAPRLLIYDASTRATGFPARFSGSGSGTEFTLTISSLQSEDFAVYYCQQYNNWPLTFGGGTKVEIK
notes: as for B1
- OD450 [1]: 2.86
- OD450 [2]: 0.53
- OD450 [3]: 0.69
